Test results reported in US20060051772A1 (LUDWIG INSTITUTE FOR CANCER RESEARCH, published 2006).

Biological target: HLA-DR molecule DRB1*0301 (human)
Experiment: cell-based or functional assay

peptide titration assay: recognition by SSX-4 31-50 reactive CD4+ T cells from LAU 331, efficiency against peptide SSX-4 31-50: 3 fold
B1: peptide SSX-4 37-51 (peptide)
peptide: WEKMKSSEKIVYVYM
